The values below come from patent US20240058446A1, “CHIMERIC TIM4 RECEPTORS AND USES THEREOF” (CERO THERAPEUTICS, INC., priority 2019, published 2024).

In assay [1] the test system is JeKo-1 mantle cell lymphoma cells. The assay is described as follows: Incucyte killing of ibrutinib pre-treated JeKo-1 mCherry+ cells by chimeric Tim4 receptor T cells. The format is cell-based. The following applies: JeKo-1 pre-treated with 25 μM ibrutinib for 20 hours; 2:1 effector:target ratio; 0.5 μM ibrutinib present; FIG. 16. As for the experimental part:
FIG. 16. Chimeric Tim4 receptor killing of ibrutinib pre-treated JeKo-1 cells. JeKo-1 mantle cell lymphoma cells engineered to express mCherry were pre-treated with 25 μM ibrutinib for 20 hours. T cells transduced with chimeric Tim4 receptor (CTX137) or CTX156 (tEGFR control) were co-cultured at a 2:1 effector:target ratio with JeKo-1 cells mCherry+ cells in the presence of 0.5 μM ibrutinib. Surviving JeKo-1 mCherry+ cells were counted every 2 hours and normalized to the count at 2 h. Wells were plated in duplicate. Error bars represent +/−SEM.
Chimeric Tim4 receptor-T cells were generated from healthy donor PBMCs. CD4+ and CD8+ T cells were isolated and mixed at a 1:1 ratio, then stimulated overnight with TransACT. Activated T cells were transduced with 5MOI of the indicated construct (CTX137 or CTX156). Cells were used for Incucyte experiments 6 days after transduction. JeKo-1 cells engineered to express mCherry were treated with 25 μM BTK inhibitor ibrutinib for 20 hours then washed. T cells and target cells were incubated at a 2:1 effector:target ratio in the presence of 0.5 μM ibrutinib. Surviving JeKo-1 mChery+ cells were counted every 2 hours and normalized to the count at 2 hours. Wells were plated in duplicate.

For assay [2] the test system is unchanged. Kind of assay: Incucyte co-culture of chimeric Tim4 receptor T cells with JeKo-1 mCherry+ cells. The format is cell-based. The following applies: 1:1 E:T ratio; T cells transduced with 5MOI; FIG. 17. As for the experimental part:
FIG. 17. Multiple chimeric Tim4 constructs eliminate ibrutinib treated JeKo-1 cells. T cells generated from healthy donor PBMCs were transduced with 5MOI of CTX137, CTX140, CTX143, or CTX156 (tEGFR control). Cells were cocultured at a 1:1 E:T ratio with Jeko-1 mCherry+ cells. Surviving Jeko-1 mCherry+ cells were counted every 2 hours and normalized to the count at 2 h. Wells were plated in duplicate. Error bars represent +/−SEM.
Chimeric Tim4 receptor (CTX137, CTX140, or CTX143) modified T cells were generated from healthy donor PBMCs. CD4+ and CD8+ T cells were isolated and mixed at a 1:1 ratio, then stimulated overnight with TransACT. Activated T cells were transduced with 5MOI of the indicated construct. Cells were used for Incucyte experiments 6 days after transduction. JeKo-1 mCherry+ cells were plated with chimeric Tim4 receptor-T cells at a 1:1 effector:target (E:T) ratio. Surviving Jeko-1 mCherry+ cells were counted every 2 hours and normalized to the count at 2 h. Wells were plated in duplicate.

The next assay concerns Jeko-1 MCL tumor. The assay is described as follows: JeKo-1 fLuc+ tumor model, chimeric Tim4 receptor T cells plus ibrutinib, bioluminescence imaging. The format is in vivo. The following applies: NSG mice, 1e6 Jeko-1 fLuc+ i.v.; ibrutinib 125 mg/kg daily for 3 days, then 1e6 T cells i.v. and 8 mg/kg ibrutinib daily; FIG. 18. The procedure: FIG. 18. […] NSG mice were inoculated i.v. with 1e6 Jeko-1 fLuc+ cells. 4 days after inoculation, mice were dosed daily with 125 mg/kg ibrutinib by oral gavage for 3 days. 7 days after inoculation, 1e6 chimeric Tim4 receptor-T cells were infused i.v. Following T cell infusion, mice were dosed daily with 8 mg/kg ibrutinib. N=10 mice per group. Chimeric Tim4 receptor-T cells were generated from healthy donor PBMCs. CD4+ and CD8+ T cells were isolated and mixed at a 1:1 ratio, then stimulated overnight with TransACT. Activated T cells were transduced with 5MOI of the indicated construct (CTX137, CTX140, or CTX156). Cells were used for Incucyte experiments 7 days after transduction. NSG mice were inoculated intravenously with 1e6 Jeko-1 fLuc+ cells. Mice were dosed with 125 mg/kg of Ibrutinib by oral gavage daily for 3 days, then transfused with 1e6 CER-T cells and dosed daily with 8 mg/kg Ibrutinib for the duration of the experiment. Tumor growth was monitored by bioluminescence imaging (BLI) (sum of photons from 8 sec exposure). n=10 for each group.

B1: CTX137: Chimeric Tim4 receptor (SEQ ID NO:68): Tim4 binding domain, CD28 transmembrane, CD28 costimulatory, DAP12 signaling domain; expressed in T cells (protein)
chain: MSKEPLILWLMIEFWWLYLTPVTSETVVTEVLGHRVTLPCLYSSWSHNSNSMCWGKDQCPYSGCKEALIRTDGMRVTSRKSAKYRLQGTIPRGDVSLTILNPSESDSGVYCCRIEVPGWFNDVKINVRLNLQRASTTTHRTATTTTRRTTTTSPTTTRQMTTTPAALPTTVVTTPDLTTGTPLQMTTIAVFTTANTCLSLTPSTLPEEATGLLTPEPSKEGPILTAESETVLPSDSWSSVESTSADTVLLTSKESKVWDLPSTSHVSMWKTSDSVSSPQPGASDTAVPEQNKTTKTGQMDGIPMSMKNEMPISQFWVLVVVGGVLACYSLLVTVAFIIFWVRSKRSRLLHSDYMNMTPRRPGPTRKHYQPYAPPRDFAAYRSYFLGRLVPRGRGAAEAATRKQRITETESPYQELQGQRSDVYSDLNTQRPYYK
modifications: Tim4 binding domain-CD28 transmembrane-CD28 costimulatory signaling domain-DAP12 signaling domain; SIGNAL (1)..(24)
notes: expressed in T cells
As for B1, the “killing of ibrutinib pretreated JeKo-1 cells (surviving mCherry+ cells normalized to count at 2 h)” value in assay [1] was “induced killing”. Moreover, the “elimination of JeKo-1 cells (surviving mCherry+ cells normalized to count at 2 h)” value in assay [2] is listed as “eliminate JeKo-1 mantle cell lymphoma cells”. Moreover, the “protection against JeKo-1 tumor (tumor growth by BLI)” value with Jeko-1 MCL tumor is “provide early protection”.

B2: CTX140: Chimeric Tim4 receptor (SEQ ID NO:44): Tim4 binding domain, CD28 hinge, CD28 transmembrane, CD28 costimulatory, DAP12 signaling domain (protein)
chain: MSKEPLILWLMIEFWWLYLTPVTSETVVTEVLGHRVTLPCLYSSWSHNSNSMCWGKDQCPYSGCKEALIRTDGMRVTSRKSAKYRLQGTIPRGDVSLTILNPSESDSGVYCCRIEVPGWFNDVKINVRLNLQRASTTTHRTATTTTRRTTTTSPTTTRQMTTTPAALPTTVVTTPDLTTGTPLQMTTIAVFTTANTCLSLTPSTLPEEATGLLTPEPSKEGPILTAESETVLPSDSWSSVESTSADTVLLTSKESKVWDLPSTSHVSMWKTSDSVSSPQPGASDTAVPEQNKTTKTGQMDGIPMSMKNEMPISQIEVMYPPPYLDNEKSNGTIIHVKGKHLCPSPLFPGPSKPFWVLVVVGGVLACYSLLVTVAFIIFWVRSKRSRLLHSDYMNMTPRRPGPTRKHYQPYAPPRDFAAYRSYFLGRLVPRGRGAAEAATRKQRITETESPYQELQGQRSDVYSDLNTQRPYYK
modifications: Tim4 binding domain-CD28 hinge-CD28 transmembrane-CD28 costimulatory signaling domain-DAP12 signaling domain; SIGNAL (1)..(24)
As to B2, in assay [2], the “elimination of JeKo-1 cells (surviving mCherry+ cells normalized to count at 2 h)” value is “eliminate JeKo-1 mantle cell lymphoma cells”. For the same molecule, the “protection against JeKo-1 tumor (tumor growth by BLI)” value in the assay with Jeko-1 MCL tumor is on record as “provide early protection”.

B3: CTX143: Chimeric Tim4 receptor (SEQ ID NO:45): Tim4 binding domain, modified IgG4 hinge, CD28 transmembrane, CD28 costimulatory, DAP12 signaling domain (protein)
chain: MSKEPLILWLMIEFWWLYLTPVTSETVVTEVLGHRVTLPCLYSSWSHNSNSMCWGKDQCPYSGCKEALIRTDGMRVTSRKSAKYRLQGTIPRGDVSLTILNPSESDSGVYCCRIEVPGWFNDVKINVRLNLQRASTTTHRTATTTTRRTTTTSPTTTRQMTTTPAALPTTVVTTPDLTTGTPLQMTTIAVFTTANTCLSLTPSTLPEEATGLLTPEPSKEGPILTAESETVLPSDSWSSVESTSADTVLLTSKESKVWDLPSTSHVSMWKTSDSVSSPQPGASDTAVPEQNKTTKTGQMDGIPMSMKNEMPISQESKYGPPCPPCPFWVLVVVGGVLACYSLLVTVAFIIFWVRSKRSRLLHSDYMNMTPRRPGPTRKHYQPYAPPRDFAAYRSYFLGRLVPRGRGAAEAATRKQRITETESPYQELQGQRSDVYSDLNTQRPYYK
modifications: Tim4 binding domain-modified IgG4 hinge-CD28 transmembrane-CD28 costimulatory signaling domain-DAP12 signaling domain; SIGNAL (1)..(24)
For the molecule B3, in assay [2], the “elimination of JeKo-1 cells (surviving mCherry+ cells normalized to count at 2 h)” value is recorded as “eliminate JeKo-1 mantle cell lymphoma cells”.
